Some results are limits rather than exact numbers.

A word on the stoichiometry N: it is a count of units in the complex or per binding partner. Broadly, the Km is the concentration of substrate that gives half-maximal velocity.

One data set deals with T1, ClpC2 (Arabidopsis thaliana, UniProt Q9SXJ7).
T1 construct: Hsp100 chaperones can assemble into hexamers
T1 sequence (Q9SXJ7 46-952): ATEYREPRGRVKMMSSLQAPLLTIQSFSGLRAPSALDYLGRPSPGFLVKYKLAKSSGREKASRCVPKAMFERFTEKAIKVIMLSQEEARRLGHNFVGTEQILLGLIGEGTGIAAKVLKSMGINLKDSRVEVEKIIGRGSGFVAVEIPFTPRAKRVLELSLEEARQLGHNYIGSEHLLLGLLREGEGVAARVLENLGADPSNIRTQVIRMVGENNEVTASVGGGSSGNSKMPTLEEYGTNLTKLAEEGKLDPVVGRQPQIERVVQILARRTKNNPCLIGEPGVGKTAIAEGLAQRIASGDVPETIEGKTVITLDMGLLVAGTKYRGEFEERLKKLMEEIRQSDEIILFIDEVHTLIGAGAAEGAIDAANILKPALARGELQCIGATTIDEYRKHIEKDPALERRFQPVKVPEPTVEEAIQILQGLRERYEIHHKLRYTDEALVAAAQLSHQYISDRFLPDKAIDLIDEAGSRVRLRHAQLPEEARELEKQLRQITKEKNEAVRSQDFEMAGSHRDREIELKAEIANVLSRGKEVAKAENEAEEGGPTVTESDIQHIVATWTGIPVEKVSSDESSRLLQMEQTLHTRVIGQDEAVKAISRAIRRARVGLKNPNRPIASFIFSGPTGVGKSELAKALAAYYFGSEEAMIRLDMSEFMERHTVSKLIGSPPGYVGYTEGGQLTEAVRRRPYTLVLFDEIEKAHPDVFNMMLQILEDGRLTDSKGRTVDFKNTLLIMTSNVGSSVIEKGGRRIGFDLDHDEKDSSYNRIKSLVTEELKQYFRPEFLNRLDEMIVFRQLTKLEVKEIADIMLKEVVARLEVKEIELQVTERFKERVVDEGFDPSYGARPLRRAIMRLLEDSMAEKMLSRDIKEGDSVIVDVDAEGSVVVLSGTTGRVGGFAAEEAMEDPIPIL
Kind of data set: ATPase, inorganic phosphate release, Malachite green. To be noted: ClpC2 0.5 uM; basal activity without ClpT1. Type of data set: biochemical.

Data set [1] deals with ClpT1 (recombinant mature ClpT1 from Arabidopsis thaliana, His-tag removed) (Arabidopsis thaliana) (UniProt Q93WL3). The data set can be described thus: SEC; the small dimer peak of the first run collected and reinjected into the column (second SEC step).
Data set [2] has the same target. Kind of data set: SEC; 6-fold concentrated sample and 10-fold diluted sample of ClpT1 injected; data not shown. Background: In gel filtration, larger molecules generally elute earlier.
Data set [3] deals with ClpD (recombinant chloroplastic Hsp100 chaperone from Arabidopsis) (Arabidopsis thaliana) (UniProt P42762). Kind of data set: ultrafiltration (retention by a 50 kDa cut-off membrane); ClpC2 or ClpD with ClpT1 or GFP, 1.3 μM each, 50 mM Tris-HCl pH 8.0, 150 mM NaCl, 10 mM MgCl2, 5 mM ATP, 10 min at 25°C; Vivaspin 500, 30 s at 11,500 x g; permeate and retentate on SDS-PAGE, densitometry.

The target of data set [4] is ClpC2 (recombinant chloroplastic Hsp100 chaperone from Arabidopsis) (Arabidopsis thaliana) (UniProt Q9SXJ7). The description is as above.
For data set [5], the target named is ClpD (recombinant chloroplastic Hsp100 chaperone from Arabidopsis) (Arabidopsis thaliana) (UniProt P42762).
In data set [6] the target is ClpT1 (recombinant mature ClpT1 from Arabidopsis thaliana, His-tag removed) (Arabidopsis thaliana) (UniProt Q93WL3). Kind of data set: SEC; purified ClpT1 on Superdex 75 10/300 GL, 0.5 mL/min, 50 mM Tris-HCl pH 8.0, 100 mM NaCl; monomer and dimer peaks integrated.
Data set [7] concerns the target ClpD (recombinant chloroplastic Hsp100 chaperone from Arabidopsis) (Arabidopsis thaliana) (UniProt P42762). The source holds these as a separate data set.
Data set [8] deals with ClpT1 (recombinant mature ClpT1 from Arabidopsis thaliana, His-tag removed) (Arabidopsis thaliana) (UniProt Q93WL3). The data set can be described thus: cross-linking; EGS at 10, 20, 30 and 50-fold molar excess, 25 μM protein, 50 mM Hepes pH 7.5, 100 mM NaCl, 30 min at room temperature; SDS-PAGE with Coomassie staining.
In data set [9] the target is glutathione S-transferase. The data set is described as above.
Substrate in data set [10]: Nc1ncnc2c1ncn2[C@@H]1O[C@H](COP(=O)(O)OP(=O)(O)OP(=O)(O)O)[C@@H](O)[C@H]1O
The data set can be described thus: ATPase, inorganic phosphate release, Malachite green; Michaelis-Menten fit. Type of data set: biochemical, Arabidopsis thaliana. The conditions noted are these: without ClpT1; ClpD 0.5 uM; ATP varied 0-12 mM, complete saturation not reached (extrapolated).

Regarding `Nc1ncnc2c1ncn2[C@@H]1O[C@H](COP(=O)(O)OP(=O)(O)OP(=O)(O)O)[C@@H](O)[C@H]1O` [ATP], at ClpC2, the specific activity result is “Both chaperones have a basal ATPase activity”.

As for “ClpT1 (recombinant mature ClpT1 from Arabidopsis thaliana, His-tag removed) (from UniProt Q93WL3 65-238) (natural protein)”, the percent of the total protein in the dimer peak after reinjection of the dimer peak in [1] is > 92%. In addition, in data set [2], the percent dimer compared to the monomer species is < 5%. The percent of ClpT1 kept in the retentate in [3] is > 75%. Further, the percent of ClpT1 kept in the retentate in data set [4] is > 75%. Moreover, the Vmax of the ClpD ATPase in the presence of ClpT1 at a 1:1 molar ratio (0.19 nmol/(min × μg protein) without ClpT1) (nmol/(min × μg protein)) in [5] was found to be 0.43. Moreover, in data set [6], the percent of the total protein in the dimer peak was < 5% and the stoichiometry N is 2. The ATPase activity of ClpD (Malachite green), ClpT1:ClpD molar ratios from approximately 0.15:1 to 6:1; activation over the basal activity, back to the basal value at 6:1 in [7] was > 50%. In data set [8], the percent of the total protein cross-linked as dimer at the highest EGS concentration was found to be 60% and the stoichiometry N was 2.

In data set [9], glutathione S-transferase (enzyme) registered a stoichiometry N of 2.

B1: ClpD (Arabidopsis thaliana) (protein)
chain: AIIFSQKEAKSLGKDMVYTQHLLLGLIAEDRDPQGFLGSGITIDKAREAVWSIWDEANSDSKQEEASSTSYSKSTDMPFSISTKRVFEAAVEYSRTMDCQYIAPEHIAVGLFTVDDGSAGRVLKRLGANMNLLTAAALTRLKGEIAKDGREPSSSSKGSFESPPSGRIAGSGPGGKKAKNVLEQFCVDLTARASEGLIDPVIGREKEVQRVIQILCRRTKNNPILLGEAGVGKTAIAEGLAISIAEASAPGFLLTKRIMSLDIGLLMAGAKERGELEARVTALISEVKKSGKVILFIDEVHTLIGSGTVGRGNKGSGLDIANLLKPSLGRGELQCIASTTLDEFRSQFEKDKALARRFQPVLINEPSEEDAVKILLGLREKYEAHHNCKYTMEAIDAAVYLSSRYIADRFLPDKAIDLIDEAGSRARIEAFRKKKEDAICILSKPPNDYWQEIKTVQAMHEVVLSSRQKQDDGDAISDESGELVEESSLPPAAGDDEPILVGPDDIAAVASVWSGIPVQQITADERMLLMSLEDQLRGRVVGQDEAVAAISRAVKRSRVGLKDPDRPIAAMLFCGPTGVGKTELTKALAANYFGSEESMLRLDMSEYMERHTVSKLIGSPPGYVGFEEGGMLTEAIRRRPFTVVLFDEIEKAHPDIFNILLQLFEDGHLTDSQGRRVSFKNALIIMTSNVGSLAIAKGRHGSIGFILDDDEEAASYTGMKALVVEELKNYFRPELLNRIDEIVIFRQLEKAQMMEILNLMLQDLKSRLVALGVGLEVSEPVKELICKQGYDPAYGARPLRRTVTEIVEDPLSEAFLAGSFKPGDTAFVVLDDTGNPSVRTKPDSSTIRVTDKTSIA
notes: Hsp100 chaperones can assemble into hexamers
Turning to B1, the Michaelis constant (Km) in data set [10] is 19.1 mM.

The record behind these values is article PMC4243950, “Characterization of the accessory protein ClpT1 from Arabidopsis thaliana: oligomerization status and interaction with Hsp100 chaperones” (BMC Plant Biology, 2014).
